B1: Hairpin Ribozyme (parent)
chain: GUCCUCUUUCACGUGCGCGUGAAAGAGAGAAGUGAACCAGAGAAACACACGUUGUGGUAUAUUACCUGGUA

The variants in this data set derive from B1. Briefly: self-cleavage, relative activity (ratio to wild type); higher = more cleavage; co-transcriptional.
Take A22G G51C: the self-cleavage worked out at 0.745.
Then A35C A41G, with 0.907; and C12G C66A, with 0.171; and G27C G68A, with 0.105.
Turning to A41C A47G, the self-cleavage turned out to be 0.0213.
To A24U C65U belongs 0.39; to G15C G25C, 0.687.
Then A26G A31U, with 0.183; and G21U G69U, with 0.211.
To U20A A22G belongs 0.587; to G15A A45U, 0.204; to C12A U60G, 0.459.
In the case of A24G A47G, the self-cleavage stood at 0.191.
Then U55A U58A, with 0.273.
For U52G G68U, the self-cleavage is 0.136.
On to C10A C18G, for which the self-cleavage is 0.791.
Then U14G A49C, with 0; and G19A U55G, with 0.216.
Take U33G U63A: the self-cleavage was found to be 0.126.
Then U53G A61G, with 0.313; and G17U A31C, with 0.224; and G1C U20G, with 0.0342.
To A24U A35U belongs 0.584; to C16A U53A, 0.936.
Then A39G A71U, with 0.176; and A59G A61G, with 0.082; and A24C G54A, with 0.547.
Regarding A11G C66U, the self-cleavage amounted to 0.619.
As for G57A U62A, the self-cleavage is 0.212.
Then U58A G69C, with 0.246; and A41U G68U, with 0.423; and C6A C46U, with 0.171.
Then U20G G54C, with 0.321; and U5A G51C, with 0.324.
On to G34A G51U, for which the self-cleavage is 1.28.
To G19C C46A belongs 0.303.
To U55G A64C belongs 0.153.
To U8G C16A belongs 0.648.
For the variant U63C A71G, the self-cleavage came to 0.328.
Then C18A G19C, with 0.802; and C3A C38U, with 0.416; and A39C U63A, with 0.17.
To C4U A39G belongs 0.122; to C3A G13U, 0.568; to U67C G69A, 0.178.
To A28C C65U belongs 0.249; to A45U U55G, 0.0773.
For the variant C18U G25U, the self-cleavage came out at 0.69.
For G25A G68C, the self-cleavage was found to be 0.22.
To G42A C46A belongs 0.152.
For the variant C50G G57U, the self-cleavage was determined as 0.307.
To C18G A35G belongs 1.24; to G1A U20C, 0.188; to C4U C10U, 0.224.
To A35C A45C belongs 0.16.
Then C4U G27A, with 0.722; and G17U G34C, with 1.5.
For the variant U20A A36U, the self-cleavage is 0.497.
Then A26G G27A, with 0.275.
With G32C C66G, the self-cleavage was 0.114.
Then U8G G17C, with 0.23; and A45U C66G, with 0.236; and C3G A22U, with 0.246.
Turning to G17A A28U, the self-cleavage worked out at 0.808.
To U8C G57A belongs 0.119.
Then U9C G54U, with 0.539; and A30U U52C, with 0.135.
Then U2C G29A, with 0.0747; and G17A U58A, with 0.709; and A39G A44C, with 0.0747.
On to A35C A47G, for which the self-cleavage was found to be 0.195.
To G15U G17A belongs 1.05; to A23G A64C, 0.2.
As to G1A A59G, the self-cleavage came to 0.237.
Then U7C G34A, with 1.17; and G1U G29A, with 0.08; and A22G U53C, with 0.817.
As to U58C A64C, the self-cleavage came to 0.178.
On to U5G U14A, for which the self-cleavage stood at 0.204.
Then A41G U63G, with 0.248; and U9C G56U, with 0.0494.
Then G34U U52G, with 0.896; and G21A U33G, with 0.104; and A11C C12A, with 0.636.
To U52G G57A belongs 0.181; to U8G C46U, 0.195.
For C12G A26G, the self-cleavage turned out to be 0.75.
Then C6A A44U, with 0.167.
As to U2G G40C, the self-cleavage is 0.126.
With C12A G15A, the self-cleavage came out at 0.801.
To G1C U70C belongs 0.155; to G15A U60A, 0.767; to G1C C16U, 0.198.
As for G29A U60G, the self-cleavage turned out to be 0.0375.
As for U5G G19A, the self-cleavage is 0.243.
To A31C U63C belongs 0.23; to U62G U67A, 0.25.
Take G42A A43U: the self-cleavage worked out at 0.215.
To U2G C50A belongs 0.15; to U14C G54C, 0.397.
To U5C C12G belongs 0.244; to U60C G68U, 0.204.
Turning to U60C G68A, the self-cleavage was 0.26.
Regarding A39C U53A, the self-cleavage came to 0.549.
To G1A U33A belongs 0.175; to U14G A35C, 0.805.
In the case of A30C U63G, the self-cleavage was 0.
Regarding U7G C37A, the self-cleavage was determined as 0.335.
G42U A49C: the self-cleavage was 0.173.
Take C38A G69U: the self-cleavage is 0.0684.
For A23U G42A, the self-cleavage stood at 0.214.
Then C3U G25U, with 0.187.
For C4A C37U, the self-cleavage was 0.16.
In the case of A41U C50U, the self-cleavage was 0.781.
With C3U U63A, the self-cleavage amounted to 0.189.
Then C3U C65G, with 0.153.
Then C18A A31C, with 0.192; and C3A C37U, with 0.543.
To C38U C65A belongs 0.453; to U2G C10A, 0.258; to C4A U20A, 0.0852.
With U8A C65G, the self-cleavage came out at 0.104.
As for U55G G69C, the self-cleavage is 0.257.
To C12G A44C belongs 0.202; to G13A G69A, 0.368; to U5C U58G, 0.318.
With A24C U53G, the self-cleavage stood at 0.733.
As to G29U G40A, the self-cleavage turned out to be 0.121.
Then A22C A45C, with 0.128; and A22C A45U, with 0.108; and G17A A49C, with 0.243.
Regarding A35U A59G, the self-cleavage amounted to 0.18.
To A26C A36G belongs 0.846; to G32A A39G, 0.107.
To G27C U55G belongs 0.113.
G25A U63A: the self-cleavage was found to be 0.108.
Take U14G G69A: the self-cleavage worked out at 0.303.
To U14G G54C belongs 0.315; to G13U A23G, 0.675; to U9A A31U, 0.0478.
To G27U A36U belongs 0.0647; to G19A U60A, 0.658.
With G17U A45U, the self-cleavage is 0.176.
To U9C G29C belongs 0.1.
Then U2G, with 0.348; and U52C G56U, with 0.149.
With U7A U8A, the self-cleavage was found to be 1.14.
Turning to G1C U5C, the self-cleavage stood at 0.361.
Then C46G C66U, with 0.215.
To U53G U63G belongs 0.156.
To C4G G40U belongs 0.0761.
Regarding G19C G54U, the self-cleavage is 0.626.
Take A24U A64U: the self-cleavage was 0.0963.
On to A23U G34A, for which the self-cleavage came out at 0.956.
In the case of A23G G34C, the self-cleavage is 1.07.
To G32U C46G belongs 0.14.
With C18U U67A, the self-cleavage is 0.109.
As for A11C G19C, the self-cleavage came out at 0.589.
Then G27A G29A, with 0.189.
To C6G G68U belongs 0.156; to A30U A43U, 0.0952; to G51A C65G, 0.287.
Regarding C4G C37U, the self-cleavage turned out to be 0.222.
Regarding A26G C66U, the self-cleavage was determined as 0.429.
On to U9G G27A, for which the self-cleavage turned out to be 0.332.
To U2C A36G belongs 0.212; to C6G C48G, 0.115.
